Measurements from paper PMC2115223.

Target: diphtheria toxin receptor (14.5-kD protein of Vero cells) (African green monkey (endogenous in Vero))
Assay: radioligand binding

Sequence of diphtheria toxin receptor (14.5-kD protein of Vero cells) (African green monkey (endogenous in Vero)) (Q09118 20-208 limits assumed): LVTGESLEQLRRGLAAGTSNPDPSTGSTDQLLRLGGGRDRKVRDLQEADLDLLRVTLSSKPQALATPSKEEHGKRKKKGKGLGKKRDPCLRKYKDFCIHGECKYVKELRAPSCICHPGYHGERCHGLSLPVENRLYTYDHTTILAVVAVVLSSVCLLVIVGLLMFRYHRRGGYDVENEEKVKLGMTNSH

Q: CRM228 (natural protein) was tested. Which fold less potent than nicked CRM197 in competition did it give?
A: 200 times
